Where “and” joins values, the source holds several entries; their conditions need not be identical. Equal entries are not always repeated.
What was measured:
[1] = molecular target: βPFO_(Aβ(1-42)) tetramer (membrane-associated β-sheet pore forming tetramer of Aβ(1-42)) (UniProt P05067); assay: native MS
[2] = molecular target: βPFO_(Aβ(1-42)) tetramer (membrane-associated β-sheet pore forming tetramer of Aβ(1-42)) (UniProt P05067); assay: SEC
[3] = molecular target: βPFO_(Aβ(1-42)) tetramer (membrane-associated β-sheet pore forming tetramer of Aβ(1-42)) (UniProt P05067); assay: ITC

somatostatin-14 (from UniProt P61278 103-116) (peptide)
stoichiometry N [1]: 1 and 2
increase of the area under the tetramer peak [2]: 20%
Kd [3]: 23 µM
stoichiometry N [3]: 2

Reference: doi:10.1101/2020.05.11.088153
